Columns and labels:
[1] = biological target: 17 isolates from rounds 2-5 of screening exhibiting the Asp-Arg motif before the scissile bond (P2-P1)
[2] = biological target: T1, … (negative control test peptide)
T1 chain: AVLSNVMFI

DINDDRSLF = biological target: T2, DINDDRSLF
T2 chain: DINDDRSLF

GDDDDK-β-naphthylamine = biological target: T3, GDDDDK-β-naphthylamine
T3 chain: GDDDDK

[3] = biological target: T4, GDDDDKIYV (positive control test peptide)
T4 chain: GDDDDKIYV

GNYTDRMFI = biological target: T5, GNYTDRMFI
T5 chain: GNYTDRMFI

GNYTDRRFI = biological target: T6, GNYTDRRFI
T6 chain: GNYTDRRFI

GNYTDRYFI = biological target: T7, GNYTDRYFI
T7 chain: GNYTDRYFI

NKAKDRMFI = biological target: T8, NKAKDRMFI
T8 chain: NKAKDRMFI

[4] = biological target: T9, phage isolate 5-A08 display polypeptide
T9 chain: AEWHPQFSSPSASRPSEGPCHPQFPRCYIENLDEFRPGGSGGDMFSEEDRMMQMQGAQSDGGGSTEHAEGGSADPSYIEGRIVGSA

[5] = biological target: T10, phage isolate 5-B05 display polypeptide
T10 chain: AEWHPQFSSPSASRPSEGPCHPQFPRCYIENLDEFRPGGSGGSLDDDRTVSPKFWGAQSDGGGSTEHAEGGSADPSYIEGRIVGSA

[6] = biological target: T11, phage isolate 5-H04 display polypeptide
T11 chain: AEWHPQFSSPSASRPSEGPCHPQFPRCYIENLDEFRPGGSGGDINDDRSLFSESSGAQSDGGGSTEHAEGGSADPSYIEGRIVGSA

[7] = biological target: T12, phage isolate 5-H11 display polypeptide
T12 chain: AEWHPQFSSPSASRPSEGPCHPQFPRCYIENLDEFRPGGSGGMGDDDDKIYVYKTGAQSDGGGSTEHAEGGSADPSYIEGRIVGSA

B1: recombinant light chain enterokinase (Novagen, Madison, Wis.) (protein)
chain: IVGGSDSREGAWPWVVALYFDDQQVCGASLVSRDWLVSAAHCVYGRNMEPSKWKAVLGLHMASNLTSPQIETRLIDQIVINPHYNKRRKNNDIAMMHLEMKVNYTDYIQPICLPEENQVFPPGRICSIAGWGALIYQGSTADVLQEADVPLLSNEKCQQQMPEYNITENMVCAGYEAGGVDSCQGDSGGPLMCQENNRWLLAGVTSFGYQCALPNRPGVYARVPRFTEWIQSFLH
- cleavage at 300 nM enterokinase (phage ELISA) [1]: All of the phage isolates were readily cleaved when the enterokinase concentration was raised to 300 nM
- enterokinase cleavage (HPLC, mass spectroscopy) [2]: No cleavage occurred with the negative control peptide (SEQ ID NO:198)
- Cleavage Rate (DINDDRSLF): 1.43 nmol/min
- rate relative to standard substrate (DINDDRSLF): 3.1
- ratio (Va/Vb) against reference peptide GDDDDK-βNA (relative kcat/Km) (DINDDRSLF): 30
- Cleavage Rate (GDDDDK-β-naphthylamine): 0.46 nmol/min
- rate relative to standard substrate (GDDDDK-β-naphthylamine): 1
- Cleavage Rate [3]: 0.34 nmol/min
- rate relative to standard substrate [3]: 0.7
- ratio (Va/Vb) against reference peptide GDDDDK-βNA (relative kcat/Km) [3]: 1
- Cleavage Rate (GNYTDRMFI): 0.81 nmol/min
- rate relative to standard substrate (GNYTDRMFI): 1.8
- ratio (Va/Vb) against reference peptide GDDDDK-βNA (relative kcat/Km) (GNYTDRMFI): 3.5
- Cleavage Rate (GNYTDRRFI): 0.18 nmol/min
- rate relative to standard substrate (GNYTDRRFI): 0.4
- Cleavage Rate (GNYTDRYFI): 0.24 nmol/min
- rate relative to standard substrate (GNYTDRYFI): 0.5
- Cleavage Rate (NKAKDRMFI): 0.26 nmol/min
- rate relative to standard substrate (NKAKDRMFI): 0.6
- enterokinase cleavage rate (phage ELISA, release from streptavidin) [4]: the cleavage rate for ... 5-H11 (SEQ ID NO:194) was slower than for at least three of the other isolates, i.e., 5-A08 (SEQ ID NO:137), 5-B05 (SEQ ID NO:145) and 5-H04 (SEQ ID NO:188)
- enterokinase cleavage rate (phage ELISA, release from streptavidin) [5]: the cleavage rate for ... 5-H11 (SEQ ID NO:194) was slower than for at least three of the other isolates, i.e., 5-A08 (SEQ ID NO:137), 5-B05 (SEQ ID NO:145) and 5-H04 (SEQ ID NO:188)
- enterokinase cleavage rate (phage ELISA, release from streptavidin) [6]: isolate 5-H04 (SEQ ID NO:188) shown in Table 5 was the most readily cut
- enterokinase cleavage rate (phage ELISA, release from streptavidin) [7]: the cleavage rate for the (Asp)4-Lys-containing recognition sequence 5-H11 (SEQ ID NO:194) was slower than for at least three of the other isolates

— patent US20020192789
